Our source for the ratio to parent values is PMC6868236.

The target in this assay is Tra1 (S. pombe) (UniProt Q9HFE8). Kind of assay: Spt7-TAP tandem affinity purification of SAGA, LC-MS/MS label-free quantification (LFQ). The conditions noted are these: parent: 1.0.
Chain of UniProt Q9HFE8 (Q9HFE8 whole entry): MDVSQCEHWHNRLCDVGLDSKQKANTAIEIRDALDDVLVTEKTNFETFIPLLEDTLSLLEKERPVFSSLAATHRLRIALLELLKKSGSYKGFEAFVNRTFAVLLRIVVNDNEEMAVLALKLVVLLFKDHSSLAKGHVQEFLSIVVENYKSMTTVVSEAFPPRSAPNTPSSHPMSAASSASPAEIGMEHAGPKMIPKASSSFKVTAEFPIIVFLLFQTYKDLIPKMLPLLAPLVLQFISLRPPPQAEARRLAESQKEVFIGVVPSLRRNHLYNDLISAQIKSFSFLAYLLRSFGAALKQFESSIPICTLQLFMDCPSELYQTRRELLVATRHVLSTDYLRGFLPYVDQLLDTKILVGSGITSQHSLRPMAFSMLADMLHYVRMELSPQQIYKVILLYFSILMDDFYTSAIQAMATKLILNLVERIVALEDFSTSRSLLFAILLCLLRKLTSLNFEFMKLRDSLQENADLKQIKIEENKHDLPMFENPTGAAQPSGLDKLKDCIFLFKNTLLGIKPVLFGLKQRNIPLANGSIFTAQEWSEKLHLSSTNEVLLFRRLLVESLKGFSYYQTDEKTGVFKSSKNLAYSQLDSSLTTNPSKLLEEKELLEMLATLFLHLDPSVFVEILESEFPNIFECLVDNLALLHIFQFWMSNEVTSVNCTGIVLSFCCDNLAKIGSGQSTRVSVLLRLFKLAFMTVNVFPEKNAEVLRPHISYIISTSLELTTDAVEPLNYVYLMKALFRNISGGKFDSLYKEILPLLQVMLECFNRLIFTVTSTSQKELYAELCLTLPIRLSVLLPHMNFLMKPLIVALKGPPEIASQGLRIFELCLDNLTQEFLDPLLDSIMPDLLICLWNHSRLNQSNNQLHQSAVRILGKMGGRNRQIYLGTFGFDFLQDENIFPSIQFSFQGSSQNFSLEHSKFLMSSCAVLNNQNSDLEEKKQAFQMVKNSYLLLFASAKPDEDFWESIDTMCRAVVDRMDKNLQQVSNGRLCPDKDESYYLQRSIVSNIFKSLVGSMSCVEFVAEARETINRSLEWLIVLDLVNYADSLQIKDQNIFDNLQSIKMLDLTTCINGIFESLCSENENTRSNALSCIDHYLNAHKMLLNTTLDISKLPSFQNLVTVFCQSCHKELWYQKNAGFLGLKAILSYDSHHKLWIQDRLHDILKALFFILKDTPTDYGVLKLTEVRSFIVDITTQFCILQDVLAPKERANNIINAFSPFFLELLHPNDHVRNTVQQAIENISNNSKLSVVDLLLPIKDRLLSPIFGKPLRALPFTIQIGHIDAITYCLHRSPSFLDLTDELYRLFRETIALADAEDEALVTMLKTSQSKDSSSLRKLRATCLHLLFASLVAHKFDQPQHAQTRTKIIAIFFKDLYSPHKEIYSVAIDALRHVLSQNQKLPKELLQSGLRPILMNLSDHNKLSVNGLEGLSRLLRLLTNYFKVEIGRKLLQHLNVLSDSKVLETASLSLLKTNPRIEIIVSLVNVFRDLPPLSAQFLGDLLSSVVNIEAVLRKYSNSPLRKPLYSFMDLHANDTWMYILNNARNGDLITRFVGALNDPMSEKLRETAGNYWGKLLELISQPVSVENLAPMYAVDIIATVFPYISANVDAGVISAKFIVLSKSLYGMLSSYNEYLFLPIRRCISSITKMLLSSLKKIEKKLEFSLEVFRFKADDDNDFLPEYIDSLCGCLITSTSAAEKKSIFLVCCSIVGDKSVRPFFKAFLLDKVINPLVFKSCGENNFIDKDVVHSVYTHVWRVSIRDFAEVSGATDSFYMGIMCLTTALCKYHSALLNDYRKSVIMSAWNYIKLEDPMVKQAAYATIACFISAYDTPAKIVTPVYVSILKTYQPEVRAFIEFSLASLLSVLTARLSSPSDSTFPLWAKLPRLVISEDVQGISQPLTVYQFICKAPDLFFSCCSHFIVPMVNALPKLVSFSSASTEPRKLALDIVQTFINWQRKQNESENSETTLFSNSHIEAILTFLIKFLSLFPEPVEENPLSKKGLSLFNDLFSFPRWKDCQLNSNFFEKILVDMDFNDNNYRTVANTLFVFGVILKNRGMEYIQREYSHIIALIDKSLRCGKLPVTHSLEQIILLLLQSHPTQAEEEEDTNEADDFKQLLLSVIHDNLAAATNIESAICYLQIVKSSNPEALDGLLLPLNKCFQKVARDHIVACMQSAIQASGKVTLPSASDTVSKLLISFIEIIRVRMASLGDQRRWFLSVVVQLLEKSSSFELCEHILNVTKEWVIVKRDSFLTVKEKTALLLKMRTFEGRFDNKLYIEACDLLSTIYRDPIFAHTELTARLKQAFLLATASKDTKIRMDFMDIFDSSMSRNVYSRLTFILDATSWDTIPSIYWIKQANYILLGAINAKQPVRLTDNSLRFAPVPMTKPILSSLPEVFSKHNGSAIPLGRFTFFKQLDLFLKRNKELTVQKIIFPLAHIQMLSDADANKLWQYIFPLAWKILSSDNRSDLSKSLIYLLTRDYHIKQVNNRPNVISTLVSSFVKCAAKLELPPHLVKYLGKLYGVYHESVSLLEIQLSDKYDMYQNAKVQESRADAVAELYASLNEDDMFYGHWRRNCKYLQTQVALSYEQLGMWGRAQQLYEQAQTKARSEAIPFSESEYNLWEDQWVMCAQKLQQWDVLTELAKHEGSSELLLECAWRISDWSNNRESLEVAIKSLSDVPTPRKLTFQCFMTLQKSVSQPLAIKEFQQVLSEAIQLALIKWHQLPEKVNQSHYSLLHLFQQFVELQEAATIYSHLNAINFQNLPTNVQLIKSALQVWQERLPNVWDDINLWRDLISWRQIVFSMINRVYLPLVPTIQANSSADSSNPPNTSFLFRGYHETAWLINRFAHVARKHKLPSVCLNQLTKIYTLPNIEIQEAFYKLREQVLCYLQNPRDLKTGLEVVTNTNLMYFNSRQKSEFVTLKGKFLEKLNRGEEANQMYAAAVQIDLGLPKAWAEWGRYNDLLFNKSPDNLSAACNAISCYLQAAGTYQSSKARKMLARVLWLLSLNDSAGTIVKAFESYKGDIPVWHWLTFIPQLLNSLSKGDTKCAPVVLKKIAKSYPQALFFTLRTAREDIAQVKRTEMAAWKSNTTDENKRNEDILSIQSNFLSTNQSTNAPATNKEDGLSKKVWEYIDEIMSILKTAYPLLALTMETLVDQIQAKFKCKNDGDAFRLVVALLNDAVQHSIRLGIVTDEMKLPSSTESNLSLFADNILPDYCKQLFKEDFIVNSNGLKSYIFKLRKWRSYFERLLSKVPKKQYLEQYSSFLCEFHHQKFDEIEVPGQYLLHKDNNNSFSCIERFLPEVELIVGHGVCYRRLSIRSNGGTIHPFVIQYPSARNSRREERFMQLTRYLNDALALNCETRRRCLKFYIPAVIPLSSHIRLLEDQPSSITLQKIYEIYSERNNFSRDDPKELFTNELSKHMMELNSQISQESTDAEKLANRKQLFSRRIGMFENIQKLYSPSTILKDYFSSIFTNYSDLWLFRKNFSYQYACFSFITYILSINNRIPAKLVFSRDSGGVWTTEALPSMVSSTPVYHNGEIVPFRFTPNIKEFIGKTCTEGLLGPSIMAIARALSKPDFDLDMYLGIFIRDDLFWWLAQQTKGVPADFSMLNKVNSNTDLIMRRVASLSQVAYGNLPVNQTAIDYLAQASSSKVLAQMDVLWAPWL

“Spt20 (S. pombe) (from UniProt O14174) RRKR>AAAA (HIT sequence … changed to …)”: the ratio to parent is 0.51.

“Spt20 (S. pombe) (from UniProt O14174) FIEN>AAAA (HIT sequence … changed to …)”: the ratio to parent was found to be 0.02.
